Source: publication PMC10936178 (mBio, 2024)

Legend:
[1] = biological target: PvS1FL (full-length Plasmodium vivax subtilisin-like protease 1, Sub1, autoprocessed with bound prodomain) (UniProt E6Y8B9); assay: analytical ultracentrifugation, sedimentation equilibrium (Beckman Coulter XL-I, absorbance at 280 nm); conditions: 20°C, 150 mM NaCl, 10 mM CaCl2, pH 5: 50 mM NaCit (sodium citrate), pH 8: 50 mM Tris
[2] = biological target: the molecule itself; assay: AUC; sedimentation equilibrium, pH 5 (50 mM NaCit pH 5, 150 mM NaCl, 10 mM CaCl2), 20°C, 2, 5 and 10 µM protein, 9,000, 13,000 and 16,000 rpm, single-species model

Molecule	apparent molecular weight (single-species fit); oligomeric state ([1]; pH 5)	apparent molecular weight (single-species fit); oligomeric state ([1]; pH 8)	stoichiometry N [2]
PvS1FL (full-length Plasmodium vivax subtilisin-like protease 1, Sub1, autoprocessed with bound prodomain)	135.8 ± 2.8 kDa (stable homodimer; theoretical monomer 67.71 kDa)	67.9 ± 1.1 kDa (monomer; theoretical monomer 67.71 kDa)	–
full-length Plasmodium vivax Sub1 (PvS1FL), recombinant, autocleaved at Asp202 (enzyme, Prodomain of P. vivax Sub1 up to the primary maturation site Asp202; Catalytic domain of P. vivax Sub1, from the residue after the primary maturation site Asp202 to the C-terminus) chain 1: GDILPNEGKKEKDDVHKIISELRFLQKVETILESSNMSVSDVEADANAYNPDRDAPKEELQKLQDQQETPSKQPNNLRNSPQKRAEKKESPGKNKKSLRLIVSENHATSPSFFEESLLQEDVVSFIQSKGKLSNLKNLKSMIIDLNSDMTDEELAEYISLLERKGALIESDKLVGAD chain 2: DVSLASVKDAVRRGESSVNWGKLRSTMLEVPSGESPPSHAASSGSPFDDDDDLLSEAALHREEAHLAGSKTTKGYKFNDEYRNLQWGLDLARLDETQDLINANRVSVTKICVIDSGIDYNHPDLRNNIDVNVKELHGRKGVDDDSNGVVDDVYGANFVNNSGDPMDDNYHGTHVSGIISAVGNNGIGIVGVDGHSKLVICKALDQHKLGRLGDMFKCIDYCISRQAHMINGSFSFDEYSNIFNASVEHLRSLGILFFVSASNCAHDKLSKPDIAKCDLAVNHRYPPILSKTHNNVIAVANLKRDLDESYSLSVNSFYSNIYCQLAAPGTNIYSTTPMNNYRKLNGTSMASPHVAAIASIVRSINPNLTYLQIVEILRNAIVKLPSLTERVSWGGYVDILRAVNLAIDSKAAPYIKSHSWFRWKQGSRR	–	–	2
